Assays:
[1] = Aβ stable isotope labeling kinetics; assay type: in vivo, human; conditions: for FTR faster in cognitively normal amyloid positive group: in vivo
[2] = assay type: in vivo, human; conditions: 0.143 - 0.091

Substance: Aβ38: endogenous soluble amyloid-beta isoform ending at residue 38, measured in human CSF
- FTR faster in cognitively normal amyloid positive group [1]: 22%

Substance: Aβ42: endogenous soluble amyloid-beta isoform ending at residue 42, measured in human CSF
- FTR (fractional turnover rate, irreversible loss) ([1]; compartmental model, CDR-SB = 0 (n=44), mean ± SD): 0.104 ± 0.036 pools/h
- FTR faster in cognitively normal amyloid positive group [1]: 57%
- deposition rate constant into amyloid plaques [2]: 0.052 pool/h

Substance: Aβ40: endogenous soluble amyloid-beta isoform ending at residue 40, measured in human CSF
- FTR faster in cognitively normal amyloid positive group [1]: 17%

— article PMC4546566 (Annals of neurology, 2015)
